{"source": "patent US6306273A", "about": "“Methods and compositions for conducting processes in microfluidic devices” (Aclara BioSciences, Inc., priority 1999, dated 2001)", "assay": "Separation of FITC labeled peptides in dynamically coated chip; charge from migration time relative to EOF", "assay_type": "physicochemical", "details": "0.05% ammonium guar; determined by migration time relative to EOF", "text": "The coating procedure and the separation conditions were the same as described previously. The surface modifying polymer was 0.05% ammonium guar. Three FITC labeled peptides (obtained from AnaSpec, San Jose, Calif.), which differed by one charge from each other (FITC-KKAA, FITC-KKKA and FITC-KKKK), were separated and detected 0.5 cm from the injection point on the anodal side. […] FITC-KKKA and FITC-KKKK migrated electrophoretically against the EOF. The net charge of FITC-KKKK was greater than +1.", "note": "Ends that are not written are not given here. * marks the point of attachment. FITC = O=C1OC2(c3ccc(O)cc3Oc3cc(O)ccc32)c2ccc(NC(=S)*)cc21", "data": [{"substance": "FITC-KKAA: FITC labeled peptide, SEQ ID NO:1, from AnaSpec ({FITC}-KKAA)", "values": [{"measurement": "net charge", "value": "negatively charged"}]}, {"substance": "FITC-KKKA: FITC labeled peptide, SEQ ID NO:2, from AnaSpec ({FITC}-KKKA)", "values": [{"measurement": "net charge", "value": "positive charged"}]}]}
